{"source": "patent US20080124813A1", "about": "“Bead-based radioimmunoassay” (Phoenix Pharmaceuticals, Inc., priority 2006, published 2008)", "key": {"insulysin (IDE)": {"target": "insulysin (IDE) (Homo sapiens, UniProt P14735)", "assay": "Peptide degradation by insulysin (IDE), read out by bead-based RIA", "assay_type": "biochemical", "details": "for degradation kinetics with insulysin (IDE): 37° C., 0-15 min, means of duplicates, FIGS. 10 and 11", "source_text": "Now referring primarily to FIGS. 10, 11 and 12 and Example 12, an embodiment of the inventive immunoassay system (1) allows for the coincident measurement of the degradation of a plurality of target particles (7) contained in the same immunoassay sample (6). […] Similarly, now referring to FIG. 11, the inventive immunoassay method can be used to determine the decreased concentration of amylin in an immunoassay sample (6) upon degradation by IDE.\n1. Prepare separately solutions of 200 pg/mL of human glucagon (adjust with I^125-glucagon) and 40 pg/mL of human amylin (adjust with I^125-amylin) each in a total volume of 2 mL.\n2. Prepare a digestion solution of insulysin (IDE) 6.2 μg in 3.1 mL of 0.15M NaCl, 25 mM Tris, pH7.5. Aliquote 0.4 mL to a tube for total of 12 tubes of digestion solution.\n3. Add to the digestion solution with above 0.4 mL of human glucagon or amylin solution.\n4. Incubate at 37° C. for a time interval at 15, 10, 7, 5, 3, 1 min and a tube without the incubation.\n5. At the indicated time, add 40 μL protease inhibitor (bacitracin 2 mg/ml final concentration) and 300 μL of 10 mM ammonium chloride to stop the reaction.\n6. Transfer 50 μL antibody conjugated bead prepared in accordance with Example 2B, 120 μL RIA buffer, 50 μl aprotinin and 80 μL of digested I^125-labeled peptide solution to 1 mL conical tube and incubate with agitation for 30 min.\n7. Spin 5 min at 16000×g to pellet the beads and discard supernatant.\n8. Add 1 mL of RIA buffer and centrifuge at 1700×g for 5 min.\n9. Remove the supernatant and count the CPM of the pellet by gamma counter."}, "anti-ghrelin antibody [1]": {"target": "anti-ghrelin antibody", "assay": "150 μl small volume competitive radiolabeled ghrelin binding by bead-linked antibody (bead-based RIA)", "details": "competition with I^125-ghrelin, total volume about 150 μl; stated as comparable to conventional RIA of Example 1", "protocol": "A particular embodiment of the immunoassay method for competitive dissociable capture of radiolabeled ghrelin peptide by solid phase linked antibody to determine ghrelin peptide concentration in a 150 μl small volume immunoassay sample can be performed as follows:\n1. Combine 25 μl of antibody conjugated beads in stock solution prepared in accordance with Example 2B to 50 μl human plasma or 50 μl standard solution.\n2. Mix the resulting combination and incubate 6 hrs at 4° C.\n3. Add 25 μl of I^125-ghrelin prepared in accordance with Example 1.3 and 50 μl RIA buffer.\n4. Incubate 16-18 hrs. at 4° C.\n5. Add 1.5 ml RIA buffer to incubated mixture and centrifuge for 5 minutes at 17,000× g. Aspirate off the supernatant (except total counts tubes). 6. Wash once with 1 ml RIA buffer. Aspirate off the supernatant (except total counts tubes).\n7. Measure and record counts per minute for each assay tube.\nThe plasma concentration was interpolated from standard curves and indicate about 18.7 pg in 150 ul solution. The amounts of isotope labeled-ligands applied (as indicated in total counts tubes) was twice that of the conventional RIA described in Example 1. […] The total assay time was about 24 hours for this embodiment of the inventive immunoassay method. […]"}, "anti-ghrelin antibody [2]": {"target": "anti-ghrelin antibody", "assay": "60 μl small volume competitive radiolabeled ghrelin binding by bead-linked antibody (bead-based RIA)", "details": "competition with I^125-ghrelin, total volume about 60 μl; stated as comparable to conventional RIA of Example 1", "protocol": "A particular embodiment of the immunoassay method for competitive dissociable capture of radiolabeled ghrelin peptide by solid phase linked antibody to determine ghrelin peptide concentration in a 60 μl small volume immunoassay sample can be performed as follows:\n1. Combine 25 μl of antibody immobilized beads in stock solution prepared in accordance with Example 2B to about 25 μl human plasma or 10 μl-25 μl standard solution.\n2. Mix resulting combination and incubate 6 hours at room temperature.\n3. Add 10 μl 125I-peptide. Mix and incubate overnight (16-18 hrs.) at 4° C. 4. Add RIA buffer. Mix and centrifuge for 5 minutes at 1,700 g. Aspirate off the supernatant (except total count tubes). 5. Wash once with 1 ml RIA buffer. Aspirate off the supernatant (except total count tubes).\n6. Measure and record counts per minute for each assay tube.\nThe plasma concentration was interpolated from standard curves and indicate about 18.7 pg in 150 μl solution. The amounts of isotope labeled-ligands applied (as indicated in total counts tubes) was twice that of the conventional RIA as described in Example 1. […]"}, "anti-ghrelin antibody [3]": {"tested_on": "anti-ghrelin antibody", "assay": "Time course of I^125-ghrelin binding to anti-ghrelin antibody-conjugated bead", "details": "room temp (21° C.), 0-249 min, FIG. 3", "protocol": "A particular embodiment of the immunoassay method for dissociable capture of radiolabeled ghrelin peptide by solid phase linked antibody can be performed as follows:\n1. Combine 100 ul of I^125-ghrelin (specific activity 3.15 p mole/ml) prepared in accordance with Example 1.3 (Example 1 step 3) to each of eight aliquots of 50 μL antibody-conjugated beads and to each of two aliquots of 50 μL glycine-conjugated beads prepared in accordance with Example 2B suspended in stock solution (0.01 M Tris (pH 7.4), 0.1% NaN3, 0.1% w/v bovine serum albumin (BSA), 0.15M NaCl, and 0.001M EDTA.\n2. Incubate antibody-conjugated beads at room temp (21° C.) for 0, 5, 10, 15, 30, 60, 120, and 249 min.\n3. To each incubated mixture of antibody-conjugated beads and I^125-ghrelin add 1.5 ml RIA buffer (150 mM NaCl, 100 mM sodium phosphate, 1% BSA and 1% Triton X-100), mix, and centrifuge for 5 minutes at 17,000× g. Aspirate off the supernatant. 4. Wash once with 1 ml RIA buffer. Aspirate off the supernatant\n5. Measure and record counts per minute for each assay tube.\nThe results shown are the means of duplicates. The counts from gamma counter represent the specific binding by anti-ghrelin antibody. The binding curve was generated using a non-linear least square fitting program in GraphPad Prism (version 2.01)."}}, "note": "No end group written: not given here."}
{"substance": "amylin (KCNTATCATQRLANFLVHSSNNFGAILSSTNVGSNTY; not fully specified (C-terminus, bridges); cysteine pairing not given here; also: 125I label, position not given here; UniProt P10997 34-70, looked up) [human amylin, human amylin, adjusted with I^125-amylin, digested with insulysin]", "values": [{"measurement": "degradation kinetics with insulysin (IDE)", "setting": "insulysin (IDE)", "value": "pseudo-first order degradation"}]}
{"substance": "ghrelin (GSSFLSPEHQRVQQRKESKKPPAKLQPR; ends and bridges not checked; UniProt Q9UBU3 24-51, looked up) [human peptide ghrelin, 28 residues in the naturally occurring form; target particle of the immunoassay]", "values": [{"measurement": "IC50", "setting": "anti-ghrelin antibody [1]", "value": "about 400 pg/ml"}, {"measurement": "IC50", "setting": "anti-ghrelin antibody [2]", "value": "around 400 pg/ml"}]}
{"substance": "I^125-ghrelin: I^125-labeled ghrelin peptide used as labeled particle (GSSFLSPEHQRVQQRKESKKPPAKLQPR; ends and bridges not checked; also: 125I label, position not given here; UniProt Q9UBU3 24-51, looked up)", "values": [{"measurement": "time to saturation binding to antibody-conjugated beads", "setting": "anti-ghrelin antibody [3]", "value": "two hour saturation binding"}]}
{"substance": "glucagon", "values": [{"measurement": "degradation kinetics with insulysin (IDE)", "setting": "insulysin (IDE)", "value": "pseudo-first order degradation"}, {"measurement": "concentration in immunoassay sample upon degradation with insulysin", "setting": "insulysin (IDE); increasing duration of incubation with IDE at 37° C., FIG. 10", "value": "decreases"}]}
